Earlier results on one substance are cited in paper PMC4610346.

For this data set, the target named is Jun leucine zipper (Homo sapiens) (UniProt P05412).
Chain of Jun leucine zipper (Homo sapiens) (P05412 277-311): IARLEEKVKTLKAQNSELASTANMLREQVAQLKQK

Chain of Fos leucine zipper (P01100 162-196): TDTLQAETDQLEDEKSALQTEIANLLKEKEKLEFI

In general, Kd refers to the concentration at which binding is half-saturated. Turning to “Fos leucine zipper (from UniProt P01100)”, the Kd is 54 nM.
